Measurements: patent US20140134177A1 (ONCOMED PHARMACEUTICALS, published 2014)

B1: RSPO1-CD4TM (ligand)
chain: SRGIKGKRQRRISAEGSQACAKGCELCSEVNGCLKCSPKLFILLERNDIRQVGVCLPSCPPGYFDARNPDMNKCIKCKIEHCEACFSHNFCTKCKEGLYLHKGRCYPACPEGSSAANGTMECSSPAQCEMSEWSPWGPCSKKQQLCGFRRGSEERTRRVLHAPVGDHAACSDTKETRRCTVRRVPCPEGQKRRKGGQGRRENANRNLARKESKEAGAGSRRRKGQQQQQQQGTVGPLTSAGPAMALIVLGGVAGLLLFIGLGIFF
notes: domain: transmembrane domain; also called cell-surface RSPO1; RSPO1 transfected cells
B2: FZD10-Fc (Fc fusion, UniProt Q9ULW2 21-154, looked up)
chain: ISSMDMERPGDGKCQPIEIPMCKDIGYNMTRMPNLMGHENQREAAIQLHEFAPLVEYGCHGHLRFFLCSLYAPMCTEQVSTPIPACRVMCEQARLKCSPIMEQFNFKWPDSLDCRKLPNKNDPNYLCMEAPNNG
notes: also called soluble FZD10; FZD1-10-Fc; not shown: Fc
B3: FZD8-Fc (Fc fusion, UniProt Q9H461 28-158, looked up)
chain: ASAKELACQEITVPLCKGIGYNYTYMPNQFNHDTQDEAGLEVHQFWPLVEIQCSPDLKFFLCSMYTPICLEDYKKPLPPCRSVCERAKAGCAPLMRQYGFAWPDRMRCDRLPEQGNPDTLCMDYNRTDLTT
notes: also called soluble FZD8; FZD1-10-Fc; not shown: Fc
B4: FZD3-Fc (Fc fusion, UniProt Q9NPG1 23-143, looked up)
chain: HSLFSCEPITLRMCQDLPYNTTFMPNLLNHYDQQTAALAMEPFHPMVNLDCSRDFRPFLCALYAPICMEYGRVTLPCRRLCQRAYSECSKLMEMFGVPWPEDMECSRFPDCDEPYPRLVDL
notes: also called FZD1-10-Fc; FZD-Fc constructs; not shown: Fc
B5: FZD4-Fc (Fc fusion, UniProt Q9ULV1 40-170, looked up)
chain: EEERRCDPIRISMCQNLGYNVTKMPNLVGHELQTDAELQLTTFTPLIQYGCSSQLQFFLCSVYVPMCTEKINIPIGPCGGMCLSVKRRCEPVLKEFGFAWPESLNCSKFPPQNDHNHMCMEGPGDEEVPLP
notes: as for B4
B6: FZD5-Fc (Fc fusion, UniProt Q13467 27-157, looked up)
chain: ASKAPVCQEITVPMCRGIGYNLTHMPNQFNHDTQDEAGLEVHQFWPLVEIQCSPDLRFFLCSMYTPICLPDYHKPLPPCRSVCERAKAGCSPLMRQYGFAWPERMSCDRLPVLGRDAEVLCMDYNRSEATT
notes: as for B4
B7: FZD6-Fc (Fc fusion, UniProt O60353 19-146, looked up)
chain: HSLFTCEPITVPRCMKMAYNMTFFPNLMGHYDQSIAAVEMEHFLPLANLECSPNIETFLCKAFVPTCIEQIHVVPPCRKLCEKVYSDCKKLIDTFGIRWPEELECDRLQYCDETVPVTFDPHTEFLGP
notes: as for B4
B8: FZD9-Fc (Fc fusion, UniProt O00144 23-159, looked up)
chain: LEIGRFDPERGRGAAPCQAVEIPMCRGIGYNLTRMPNLLGHTSQGEAAAELAEFAPLVQYGCHSHLRFFLCSLYAPMCTDQVSTPIPACRPMCEQARLRCAPIMEQFNFGWPDSLDCARLPTRNDPHALCMEAPENA
notes: as for B4

Legend:
FZD2-Fc = FZD2-Fc (UniProt Q14332 24-159); assay: FACS, Fc fusion on HEK 293 cells with RSPO1-CD4TM
Protocol: (§1) FIG. 7. RSPO1 Activates Beta-Catenin Signaling via Binding to LGR5. A) HEK 293 cells transiently transfected with RSPO1-CD4TM and GFP were incubated with LGR5-Fc, LRP6FL-Fc, LRP6E1-2-Fc, or FZD1-10-Fc as indicated. […] B) HEK 293 cells transiently transfected with […] and GFP were incubated in the presence of heparin with (in duplicate) RSPO1-Fc (top), FZD8-Fc (middle), or a FLAG antibody as a positive control (bottom). […] HEK 293 cells transiently transfected with FLAG-LGR5-CD4TM and GFP were incubated in the presence of heparin with RSPO1-Fc, RSPO2-Fc, RSPO3-Fc, RSPO4-Fc, FZD8-Fc, or a FLAG antibody as a positive control as indicated.
(§2) To determine the mechanism by which RSPO1 activates beta-catenin signaling, FACS analysis was used to assess binding between RSPO1 and LGR5. In certain embodiments, binding between soluble LGR5 and cell-surface RSPO1 was determined. A cell-surface RSPO1 protein was generated by ligating full-length human RSPO1 to the transmembrane domain of CD4 using standard recombinant DNA techniques (RSPO1-CD4TM). HEK 293 cells were transiently transfected RSPO1-CD4TM and GFP. After 48 hours, cells were suspended in ice cold PBS containing 2% FCS and then incubated on ice in the presence of LGR5-Fc, LRP6-ECD-Fc (containing the extracellular domain of human LRP6 fused to an Fc domain), LRP6E1-2-Fc (containing amino acids 1-629 of human LRP6 fused to an Fc domain), or various FZD-Fc constructs, including FZD1-10. […] Only a weak interaction between RSPO1 and the WNT co-receptor LRP6 was detected.

FZD1-Fc = target: T1, FZD1-Fc (UniProt Q9UP38 87-237); assay: FACS, Fc fusion on HEK 293 cells with RSPO1-CD4TM
T1 construct: also called FZD1-10-Fc; FZD-Fc constructs; not shown: Fc
Protocol: as §1, §2

FZD7-Fc = FZD7-Fc (UniProt O75084 33-170); assay: FACS, Fc fusion on HEK 293 cells with RSPO1-CD4TM
Protocol: as §1, §2

RSPO1-CD4TM = target: B1; assay: FACS, Fc fusion on HEK 293 cells with RSPO1-CD4TM
Protocol: as §1, §2

FLAG-LGR5-CD4TM = target: T2, FLAG-LGR5-CD4TM (human, UniProt P01730 397-418, limits assumed); assay: FACS, Fc fusion on HEK 293 cells with FLAG-LGR5-CD4TM, with heparin
T2 construct: domain: transmembrane domain; also called cell-surface LGR5; LGR5 transfected cells; not shown: N-terminal FLAG tag
Protocol: In certain embodiments, binding between soluble RSPO1 and cell-surface LGR5 was determined. A variant cell-surface LGR5 protein was generated by ligating amino acids 22-564 of LGR5 to an N-terminal FLAG tag and to the transmembrane domain of CD4 using standard recombinant DNA techniques (FLAG-LGR5-CD4TM). HEK 293 cells were transiently transfected with FLAG-LGR5-CD4TM and GFP. After 48 hours, cells were suspended in ice cold PBS containing 2% FCS and heparin and then incubated on ice in the presence of RSPO1-Fc, FZD8-Fc, or a FLAG antibody as a positive control.

Binder	binding result (RSPO1-CD4TM)	further results
B1		binding result (FZD2-Fc): no binding; binding result (FZD1-Fc): no binding; binding result (FZD7-Fc): no binding
B2	no binding	
B3	no binding	binding result (FLAG-LGR5-CD4TM): no binding
B4	no binding	
B5	no binding	
B6	no binding	
B7	no binding	
B8	no binding	
